Measured values: patent US20180071366A1
Numbered stars: 1 amine (or outer) side, 2 acyl side, 3 side chain; on linkers, the order of the positions; unused ones are H or OH. Bridge positions count the residues as written; N and C are the ends. Square brackets hold non-standard residues; d marks the D form. * marks the point of attachment. C20 diacid = O=C(O)CCCCCCCCCCCCCCCCCCC(=O)*; γGlu = O=C(O)[C@H](CCC(=O)[*:2])N[*:1]; Hyp = O=C(O)[C@@H]1C[C@@H](O)CN1; NMeI = CC[C@H](C)[C@H](NC)C(=O)O; Aad = N[C@@H](CCCC(=O)O)C(=O)O; Orn = NCCC[C@H](N)C(=O)O; Dab = NCC[C@H](N)C(=O)O; Dap = NC[C@H](N)C(=O)O; Sar = CNCC(=O)O

Tests used:
[1] = target: recombinant human calcitonin receptor (hCT-R) (human), P30988; assay: cell-based or functional assay
Sequence of recombinant human calcitonin receptor (hCT-R) (human), P30988 (P30988 25-474): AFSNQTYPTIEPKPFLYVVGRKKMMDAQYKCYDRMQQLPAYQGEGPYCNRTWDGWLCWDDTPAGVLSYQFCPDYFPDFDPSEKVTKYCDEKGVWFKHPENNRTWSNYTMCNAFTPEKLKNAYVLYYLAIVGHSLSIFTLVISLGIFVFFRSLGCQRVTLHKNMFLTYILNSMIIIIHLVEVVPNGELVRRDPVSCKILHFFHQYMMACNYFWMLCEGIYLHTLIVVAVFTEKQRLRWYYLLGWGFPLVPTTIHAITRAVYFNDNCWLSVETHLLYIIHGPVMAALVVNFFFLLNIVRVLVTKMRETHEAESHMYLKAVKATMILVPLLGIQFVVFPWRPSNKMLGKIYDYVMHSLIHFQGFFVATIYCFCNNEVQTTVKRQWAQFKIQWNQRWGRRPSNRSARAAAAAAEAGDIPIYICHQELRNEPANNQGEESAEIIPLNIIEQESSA

[2] = target: recombinant human amylin 3 receptor (hAMYR3) (human), P30988; assay: cell-based or functional assay
Sequence of recombinant human amylin 3 receptor (hAMYR3) (human), P30988 (P30988 25-474, chain 1 of 2): as the sequence (P30988 25-474) above
Sequence of recombinant human amylin 3 receptor (hAMYR3) (human), P30988 (O60896 24-148, chain 2 of 2, further chain): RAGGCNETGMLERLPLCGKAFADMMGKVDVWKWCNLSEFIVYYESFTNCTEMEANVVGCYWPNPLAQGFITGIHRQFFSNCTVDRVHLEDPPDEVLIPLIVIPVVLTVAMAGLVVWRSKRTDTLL

Row | Binder | hCT-R EC50 [nM] (cAMP formation, 1321N1 cells expressing hCT-R) [1] | hAMYR3 EC50 [nM] (cAMP formation, 1321N1 cells expressing hAMYR3) [2]
1 | {C20 diacid-γGlu}-KDGTATKATQRLANFLQRSSF[Sar]A[NMeI]LSSTEVGSNT[Hyp]-NH2 (lactam 2-7; SMILES CC[C@H](C)[C@@H](C(=O)N[C@@H](CC(C)C)C(=O)N[C@@H](CO)C(=O)N[C@@H](CO)C(=O)N[C@H](C(=O)N[C@@H](CCC(=O)O)C(=O)N[C@H](C(=O)NCC(=O)N[C@@H](CO)C(=O)N[C@@H](CC(N)=O)C(=O)N[C@H](C(=O)N1C[C@H](O)C[C@H]1C(N)=O)[C@@H](C)O)C(C)C)[C@@H](C)O)N(C)C(=O)[C@H](C)NC(=O)CN(C)C(=O)[C@H](Cc1ccccc1)NC(=O)[C@H](CO)NC(=O)[C@H](CO)NC(=O)[C@H](CCCNC(=N)N)NC(=O)[C@H](CCC(N)=O)NC(=O)[C@H](CC(C)C)NC(=O)[C@H](Cc1ccccc1)NC(=O)[C@H](CC(N)=O)NC(=O)[C@H](C)NC(=O)[C@H](CC(C)C)NC(=O)[C@H](CCCNC(=N)N)NC(=O)[C@H](CCC(N)=O)NC(=O)[C@@H](NC(=O)[C@H](C)NC(=O)[C@@H]1CCCCNC(=O)C[C@H](NC(=O)[C@H](CCCCN)NC(=O)CC[C@H](NC(=O)CCCCCCCCCCCCCCCCCCC(=O)O)C(=O)O)C(=O)NCC(=O)N[C@@H]([C@@H](C)O)C(=O)N[C@@H](C)C(=O)N[C@@H]([C@@H](C)O)C(=O)N1)[C@@H](C)O) [Compound 43] | 0.021 nM | 0.007 nM
2 | {C20 diacid-γGlu}-KDGTATKATQRLANFLQRSSF[Sar]A[NMeI]LSSTETGSNT[Hyp]-NH2 (lactam 2-7; SMILES CC[C@H](C)[C@@H](C(=O)N[C@@H](CC(C)C)C(=O)N[C@@H](CO)C(=O)N[C@@H](CO)C(=O)N[C@H](C(=O)N[C@@H](CCC(=O)O)C(=O)N[C@H](C(=O)NCC(=O)N[C@@H](CO)C(=O)N[C@@H](CC(N)=O)C(=O)N[C@H](C(=O)N1C[C@H](O)C[C@H]1C(N)=O)[C@@H](C)O)[C@@H](C)O)[C@@H](C)O)N(C)C(=O)[C@H](C)NC(=O)CN(C)C(=O)[C@H](Cc1ccccc1)NC(=O)[C@H](CO)NC(=O)[C@H](CO)NC(=O)[C@H](CCCNC(=N)N)NC(=O)[C@H](CCC(N)=O)NC(=O)[C@H](CC(C)C)NC(=O)[C@H](Cc1ccccc1)NC(=O)[C@H](CC(N)=O)NC(=O)[C@H](C)NC(=O)[C@H](CC(C)C)NC(=O)[C@H](CCCNC(=N)N)NC(=O)[C@H](CCC(N)=O)NC(=O)[C@@H](NC(=O)[C@H](C)NC(=O)[C@@H]1CCCCNC(=O)C[C@H](NC(=O)[C@H](CCCCN)NC(=O)CC[C@H](NC(=O)CCCCCCCCCCCCCCCCCCC(=O)O)C(=O)O)C(=O)NCC(=O)N[C@@H]([C@@H](C)O)C(=O)N[C@@H](C)C(=O)N[C@@H]([C@@H](C)O)C(=O)N1)[C@@H](C)O) [Compound 44] | 0.02 nM | 0.009 nM
3 | {C20 diacid-γGlu}-R[Dap]GTATDATERLAHFLQRSSF[Sar]A[NMeI]LSSTEVGSNT[Hyp]-NH2 (lactam 2-7; SMILES CC[C@H](C)[C@@H](C(=O)N[C@@H](CC(C)C)C(=O)N[C@@H](CO)C(=O)N[C@@H](CO)C(=O)N[C@H](C(=O)N[C@@H](CCC(=O)O)C(=O)N[C@H](C(=O)NCC(=O)N[C@@H](CO)C(=O)N[C@@H](CC(N)=O)C(=O)N[C@H](C(=O)N1C[C@H](O)C[C@H]1C(N)=O)[C@@H](C)O)C(C)C)[C@@H](C)O)N(C)C(=O)[C@H](C)NC(=O)CN(C)C(=O)[C@H](Cc1ccccc1)NC(=O)[C@H](CO)NC(=O)[C@H](CO)NC(=O)[C@H](CCCNC(=N)N)NC(=O)[C@H](CCC(N)=O)NC(=O)[C@H](CC(C)C)NC(=O)[C@H](Cc1ccccc1)NC(=O)[C@H](Cc1c[nH]cn1)NC(=O)[C@H](C)NC(=O)[C@H](CC(C)C)NC(=O)[C@H](CCCNC(=N)N)NC(=O)[C@H](CCC(=O)O)NC(=O)[C@@H](NC(=O)[C@H](C)NC(=O)[C@@H]1CC(=O)NC[C@H](NC(=O)[C@H](CCCNC(=N)N)NC(=O)CC[C@H](NC(=O)CCCCCCCCCCCCCCCCCCC(=O)O)C(=O)O)C(=O)NCC(=O)N[C@@H]([C@@H](C)O)C(=O)N[C@@H](C)C(=O)N[C@@H]([C@@H](C)O)C(=O)N1)[C@@H](C)O) [Compound 45] | 299 nM | 279 nM
4 | {C20 diacid-γGlu}-R[Dab]GTATDATERLAHFLQRSSF[Sar]A[NMeI]LSSTEVGSNT[Hyp]-NH2 (lactam 2-7; SMILES CC[C@H](C)[C@@H](C(=O)N[C@@H](CC(C)C)C(=O)N[C@@H](CO)C(=O)N[C@@H](CO)C(=O)N[C@H](C(=O)N[C@@H](CCC(=O)O)C(=O)N[C@H](C(=O)NCC(=O)N[C@@H](CO)C(=O)N[C@@H](CC(N)=O)C(=O)N[C@H](C(=O)N1C[C@H](O)C[C@H]1C(N)=O)[C@@H](C)O)C(C)C)[C@@H](C)O)N(C)C(=O)[C@H](C)NC(=O)CN(C)C(=O)[C@H](Cc1ccccc1)NC(=O)[C@H](CO)NC(=O)[C@H](CO)NC(=O)[C@H](CCCNC(=N)N)NC(=O)[C@H](CCC(N)=O)NC(=O)[C@H](CC(C)C)NC(=O)[C@H](Cc1ccccc1)NC(=O)[C@H](Cc1c[nH]cn1)NC(=O)[C@H](C)NC(=O)[C@H](CC(C)C)NC(=O)[C@H](CCCNC(=N)N)NC(=O)[C@H](CCC(=O)O)NC(=O)[C@@H](NC(=O)[C@H](C)NC(=O)[C@@H]1CC(=O)NCC[C@H](NC(=O)[C@H](CCCNC(=N)N)NC(=O)CC[C@H](NC(=O)CCCCCCCCCCCCCCCCCCC(=O)O)C(=O)O)C(=O)NCC(=O)N[C@@H]([C@@H](C)O)C(=O)N[C@@H](C)C(=O)N[C@@H]([C@@H](C)O)C(=O)N1)[C@@H](C)O) [Compound 46] | 7.5 nM | 5.5 nM
5 | {C20 diacid-γGlu}-R[Orn]GTATDATERLAHFLQRSSF[Sar]A[NMeI]LSSTEVGSNT[Hyp]-NH2 (lactam 2-7; SMILES CC[C@H](C)[C@@H](C(=O)N[C@@H](CC(C)C)C(=O)N[C@@H](CO)C(=O)N[C@@H](CO)C(=O)N[C@H](C(=O)N[C@@H](CCC(=O)O)C(=O)N[C@H](C(=O)NCC(=O)N[C@@H](CO)C(=O)N[C@@H](CC(N)=O)C(=O)N[C@H](C(=O)N1C[C@H](O)C[C@H]1C(N)=O)[C@@H](C)O)C(C)C)[C@@H](C)O)N(C)C(=O)[C@H](C)NC(=O)CN(C)C(=O)[C@H](Cc1ccccc1)NC(=O)[C@H](CO)NC(=O)[C@H](CO)NC(=O)[C@H](CCCNC(=N)N)NC(=O)[C@H](CCC(N)=O)NC(=O)[C@H](CC(C)C)NC(=O)[C@H](Cc1ccccc1)NC(=O)[C@H](Cc1c[nH]cn1)NC(=O)[C@H](C)NC(=O)[C@H](CC(C)C)NC(=O)[C@H](CCCNC(=N)N)NC(=O)[C@H](CCC(=O)O)NC(=O)[C@@H](NC(=O)[C@H](C)NC(=O)[C@@H]1CC(=O)NCCC[C@H](NC(=O)[C@H](CCCNC(=N)N)NC(=O)CC[C@H](NC(=O)CCCCCCCCCCCCCCCCCCC(=O)O)C(=O)O)C(=O)NCC(=O)N[C@@H]([C@@H](C)O)C(=O)N[C@@H](C)C(=O)N[C@@H]([C@@H](C)O)C(=O)N1)[C@@H](C)O) [Compound 47] | 10.8 nM | 7.7 nM
6 | {C20 diacid-γGlu}-R[Dap]GTAT[Aad]ATERLAHFLQRSSF[Sar]A[NMeI]LSSTEVGSNT[Hyp]-NH2 (lactam 2-7; SMILES CC[C@H](C)[C@@H](C(=O)N[C@@H](CC(C)C)C(=O)N[C@@H](CO)C(=O)N[C@@H](CO)C(=O)N[C@H](C(=O)N[C@@H](CCC(=O)O)C(=O)N[C@H](C(=O)NCC(=O)N[C@@H](CO)C(=O)N[C@@H](CC(N)=O)C(=O)N[C@H](C(=O)N1C[C@H](O)C[C@H]1C(N)=O)[C@@H](C)O)C(C)C)[C@@H](C)O)N(C)C(=O)[C@H](C)NC(=O)CN(C)C(=O)[C@H](Cc1ccccc1)NC(=O)[C@H](CO)NC(=O)[C@H](CO)NC(=O)[C@H](CCCNC(=N)N)NC(=O)[C@H](CCC(N)=O)NC(=O)[C@H](CC(C)C)NC(=O)[C@H](Cc1ccccc1)NC(=O)[C@H](Cc1c[nH]cn1)NC(=O)[C@H](C)NC(=O)[C@H](CC(C)C)NC(=O)[C@H](CCCNC(=N)N)NC(=O)[C@H](CCC(=O)O)NC(=O)[C@@H](NC(=O)[C@H](C)NC(=O)[C@@H]1CCCC(=O)NC[C@H](NC(=O)[C@H](CCCNC(=N)N)NC(=O)CC[C@H](NC(=O)CCCCCCCCCCCCCCCCCCC(=O)O)C(=O)O)C(=O)NCC(=O)N[C@@H]([C@@H](C)O)C(=O)N[C@@H](C)C(=O)N[C@@H]([C@@H](C)O)C(=O)N1)[C@@H](C)O) [Compound 48] | 0.107 nM | 0.02 nM
7 | {C20 diacid-γGlu}-R[Dab]GTATEATERLAHFLQRSSF[Sar]A[NMeI]LSSTEVGSNT[Hyp]-NH2 (lactam 2-7; SMILES CC[C@H](C)[C@@H](C(=O)N[C@@H](CC(C)C)C(=O)N[C@@H](CO)C(=O)N[C@@H](CO)C(=O)N[C@H](C(=O)N[C@@H](CCC(=O)O)C(=O)N[C@H](C(=O)NCC(=O)N[C@@H](CO)C(=O)N[C@@H](CC(N)=O)C(=O)N[C@H](C(=O)N1C[C@H](O)C[C@H]1C(N)=O)[C@@H](C)O)C(C)C)[C@@H](C)O)N(C)C(=O)[C@H](C)NC(=O)CN(C)C(=O)[C@H](Cc1ccccc1)NC(=O)[C@H](CO)NC(=O)[C@H](CO)NC(=O)[C@H](CCCNC(=N)N)NC(=O)[C@H](CCC(N)=O)NC(=O)[C@H](CC(C)C)NC(=O)[C@H](Cc1ccccc1)NC(=O)[C@H](Cc1c[nH]cn1)NC(=O)[C@H](C)NC(=O)[C@H](CC(C)C)NC(=O)[C@H](CCCNC(=N)N)NC(=O)[C@H](CCC(=O)O)NC(=O)[C@@H](NC(=O)[C@H](C)NC(=O)[C@@H]1CCC(=O)NCC[C@H](NC(=O)[C@H](CCCNC(=N)N)NC(=O)CC[C@H](NC(=O)CCCCCCCCCCCCCCCCCCC(=O)O)C(=O)O)C(=O)NCC(=O)N[C@@H]([C@@H](C)O)C(=O)N[C@@H](C)C(=O)N[C@@H]([C@@H](C)O)C(=O)N1)[C@@H](C)O) [Compound 49] | 1.04 nM | 0.442 nM
